From US7157092B1, “Acyl pseudodipeptides, preparation method and pharmaceutical compositions containing same” (Om Pharma, priority 1998, dated 2007)

System: ovalbumin
Assay: Subcutaneous immunization with ovalbumin antigen: specific serum immunoglobulins (ELISA)
Assay type: in vivo, BALB/c mice
Settings: s.c. injections days 0 and 14, ovalbumin 50 μg, adjuvant 50 μg per injection, ± SD
Method: To this end, 50 BALB/c mice (females, aged 8 weeks at the beginning of treatment) were divided into 5 groups as follows:
Antigen: An ovalbumin stock solution is prepared at a concentration of 0.5 mg/ml in 0.9% NaCl.
The negative control consists of a 0.9% NaCl solution without antigen.
Antigen-Adjuvant mixture: Adjuvants are allowed to stand for 20 minutes at 37° C. before vortex treatment for 3 minutes. Then the antigen and (0.9%) NaCl are added as specified in the above Table, and the antigen/adjuvant mixture is vortexed briefly before placing it on a rotary stirrer for 15 minutes at room temperature, then the whole mixture is vortexed for 3 minutes.
Immunization regimen: Injections are scheduelled on days 0 and 14. The mixtures stated in the preceeding table are administered by subcutaeous route (75 μl on the side, 150 μl in total per animal). Blood sampling is scheduelled on days 14 and 28 (orbital puncture).
Assay for anti-ovalbumin immunoglobulins: The following serum Immunolglobulins which are specifically directed against ovalbumin are assayed in duplicate by ELISA: IgG1, IgG2a, and IgM. Briefly stated, microtiter plates (NUNC Immunoplate, Roskilde, DK) are incubated (overnight coating) at 40C together with 100 μl ovalbumin (0.5 μg) in bicarbonate buffer pH 9.6). After washing with 0.5% Tween-20 (Merck Hohenbrunn, D), sera are diluted 50-, 200- and 800-fold (diluting solution: phosphate buffered saline (PBS)+1% bovine serum albumin (BSA, Sigma, St. Louis, Mo., USA)+0.02% Tween-20)). 100 μl of each dilute serum sample are added to the wells. Incubation lasts 45 minutes at 37° C.
After a second washing step, IgG1, IgG2a and IgM specifically directed to ovalbumin are incubated for 30 minutes at 37° C. together with 100 μl of anti-IgG1 antibodies (anti-mouse rat antibody)-peroxydase conjugate (Serotec, Oxford, UK), IgG2a-peroxydase conjugate (Pharmingen, San Diego, Calif., USA) and IgM-biotin conjugate (Pharmingen, San Diego, Calif., USA), diluted beforehand in PBS/BSA/Tween buffer (250-, 1000-, 500-fold dilutions, respectively). For IgM, after an extra washing step, a 3rd incubation step is required (30 min. at 37° C.) with a 1:100 dilute solution of streptavidin-peroxydase conjugate (Dako, Glostrup, DK).
After the washing step, 100 μl of a phenylene 1,2-diamine solution (OPD, Merck, Darmstadt, GFR) are added to detect peroxydase-coupled anti-IgG1 and anti-IgG2 secondary antibodies (whereas for IgM, the reagent being used is 3′, 3′, 5′,5′-tetramethylbenzidine (TMB, Sigma, St. Louis, Mo., USA). After a 20 minute incubation period at room temperature, the reaction is stopped by adding 100 μl of 2N H2SO4. Absorbance values are read at 490 nm with a Bio-Rad 3550 model plate reader
Results of each reading at 490 nm are given in arbitrary units (A.U.) per ml. This is achieved by comparing each sample with a standard prepared from different dilutions of a sample pool collected from group B at day 28 (animals injected with ovalbumin alone). As clearly understood by this term, the sample pool diluted 50-fold is at a concentration of 1000 A.U./ml. Individual results are then corrected for the corresponding dilution factor (50, 200, or 800 times). Only the mean values of each group and the standard deviation (SD) are herein reported.

B1: ova: ovalbumin antigen (Fluka Chemie), injected alone (protein, UniProt P01012 2-386, looked up)
Ovalbumin: GSIGAASMEFCFDVFKELKVHHANENIFYCPIAIMSALAMVYLGAKDSTRTQINKVVRFDKLPGFGDSIEAQCGTSVNVHSSLRDILNQITKPNDVYSFSLASRLYAEERYPILPEYLQCVKELYRGGLEPINFQTAADQARELINSWVESQTNGIIRNVLQPSSVDSQTAMVLVNAIVFKGLWEKAFKDEDTQAMPFRVTEQESKPVQMMYQIGLFRVASMASEKMKILELPFASGTMSMLVLLPDEVSGLEQLESIINFEKLTEWTSSNVMEERKIKVYLPRMKMEEKYNLTSVLMAMGITDVFSSSANLSGISSAESLKISQAVHAAHAEINEAGREVVGSAEAGVDAASVSEEFRADHPFLFCIKHIATNAVLFFGRCVSP
In the case of B1, the “Immunoglobulins specifically raised against ovalbumin of IgG1 subclass” value (Day 14) is reported as 728 ± 589 Arbitrary units/ml, the “Immunoglobulins specifically raised against ovalbumin of IgG2a subclass” value (Day 14) is reported as 5201 ± 1880 Arbitrary units/ml and the “Immunoglobulins specifically raised against ovalbumin of IgM subclass” value (Day 14) is reported as 19423 ± 13778 Arbitrary units/ml. For the same molecule, the “Immunoglobulins specifically raised against ovalbumin of IgG1 subclass” value (Day 28) was 47743 ± 46294 Arbitrary units/ml, the “Immunoglobulins specifically raised against ovalbumin of IgG2a subclass” value (Day 28) was 73162 ± 107954 Arbitrary units/ml and the “Immunoglobulins specifically raised against ovalbumin of IgM subclass” value (Day 28) was 47998 ± 34035 Arbitrary units/ml.
